Consider two molecules from paper PMC5714165 (Nucleic Acids Research, 2017).

Assay [1] addresses eIF2α-NTD_(S51D) (phosphomimetic N-terminal domain of eIF2α, aa 1–184) (human). Kind of assay: fluorescence polarisation.
The next assay has as its target T1, eIF2Bβ (human, UniProt P49770 1-351).
T1 sequence: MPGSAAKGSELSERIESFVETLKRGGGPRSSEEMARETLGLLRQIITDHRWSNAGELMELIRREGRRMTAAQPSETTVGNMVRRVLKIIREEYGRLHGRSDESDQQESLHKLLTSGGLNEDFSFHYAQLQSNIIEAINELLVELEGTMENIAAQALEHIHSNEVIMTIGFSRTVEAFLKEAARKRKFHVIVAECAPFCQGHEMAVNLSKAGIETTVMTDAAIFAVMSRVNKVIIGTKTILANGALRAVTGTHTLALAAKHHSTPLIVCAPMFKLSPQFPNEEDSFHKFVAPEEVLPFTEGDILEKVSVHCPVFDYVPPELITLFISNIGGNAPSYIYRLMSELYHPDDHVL
In words: SEC.

As to “eIF2Breg (eIF2B regulatory subcomplex of eIF2Bα, β and δ), reconstituted from individual subunits (from UniProt Q14232;P49770;Q9UI10)”, the fold higher affinity than for WT eIF2α-NTD in assay [1] was below 2 fold.

B1: eIF2Bα_(I301E/L305D) mutant (designated as eIF2Bα in the paper) (natural protein)
chain: MDDKELIEYFKSQMKEDPDMASAVAAIRTLLEFLKRDKGETIQGLRANLTSAIETLCGVDSSVAVSSGGELFLRFISLASLEYSDYSKCKKIMIERGELFLRRISLSRNKIADLCHTFIKDGATILTHAYSRVVLRVLEAAVAAKKRFSVYVTESQPDLSGKKMAKALCHLNVPVTVVLDAAVGYIMEKADLVIVGAEGVVENGGIINKIGTNQMAVCAKAQNKPFYVVAESFKFVRLFPLNQQDVPDKFKYKADTLKVAQTGQDLKEEHPWVDYTAPSLITLLFTDLGVLTPSAVSDELEKLYD
B1: in the assay with eIF2Bβ, the binding result is “binds”.
